Source: PMC9482650, “Quantitative fragmentomics allow affinity mapping of interactomes” (Nature Communications, 2022)

Key:
Experiment in all cases: holdup assay
Design in all cases: key: below the threshold = too weak to quantify, mostly under pKd 3.1 to 4
[1] = molecular target: GOPC, Q9HD26
[2] = molecular target: TJP1_2, Q07157
[3] = molecular target: T1, DFNB31_2, Q9P202
T1 sequence (Q9P202 274-371, limits assumed, looked up): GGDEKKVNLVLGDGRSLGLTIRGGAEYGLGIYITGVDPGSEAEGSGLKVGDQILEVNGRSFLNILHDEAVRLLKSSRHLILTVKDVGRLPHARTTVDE

[4] = molecular target: T2, PARD3B_1, Q8TEW8
T2 sequence (Q8TEW8 196-299, limits assumed, looked up): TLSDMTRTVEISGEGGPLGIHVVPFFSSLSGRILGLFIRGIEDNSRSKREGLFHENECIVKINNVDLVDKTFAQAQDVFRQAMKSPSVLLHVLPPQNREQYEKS

[5] = molecular target: T3, DLG3_1, Q92796
T3 sequence (Q92796 125-227, limits assumed, looked up): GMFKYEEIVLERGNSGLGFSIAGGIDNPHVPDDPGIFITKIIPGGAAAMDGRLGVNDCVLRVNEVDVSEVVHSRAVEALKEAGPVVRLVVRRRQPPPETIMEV

[6] = molecular target: FRMPD2_2, Q68DX3
[7] = molecular target: T4, LIN7C, Q9NUP9
T4 sequence (Q9NUP9 88-185, limits assumed, looked up): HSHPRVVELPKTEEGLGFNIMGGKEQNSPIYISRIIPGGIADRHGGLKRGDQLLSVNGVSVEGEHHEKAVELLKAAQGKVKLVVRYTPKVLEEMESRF

[8] = molecular target: T5, HTRA3, P83110
T5 sequence (P83110 354-453, limits assumed, looked up): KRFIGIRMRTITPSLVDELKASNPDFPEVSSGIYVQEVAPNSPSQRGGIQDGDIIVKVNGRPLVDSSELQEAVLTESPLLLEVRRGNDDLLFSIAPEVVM

[9] = molecular target: T6, LNX2_3, Q8N448
T6 sequence (Q8N448 463-564, limits assumed, looked up): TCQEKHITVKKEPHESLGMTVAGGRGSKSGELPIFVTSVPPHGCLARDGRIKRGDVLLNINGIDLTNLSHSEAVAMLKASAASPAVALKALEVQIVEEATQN

[10] = molecular target: Inadl_3, Q8NI35
[11] = molecular target: NHERF2_2, Q15599
[12] = molecular target: SCRIB_2, Q14160
[13] = molecular target: LAP2, Q96RT1
[14] = molecular target: T7, GRIP1_7, Q9Y3R0
T7 sequence (Q9Y3R0 999-1096, limits assumed, looked up): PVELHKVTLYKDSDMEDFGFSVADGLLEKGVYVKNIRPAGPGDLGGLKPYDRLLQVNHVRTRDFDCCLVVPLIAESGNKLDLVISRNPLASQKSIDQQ

[15] = molecular target: T8, SNTA1, Q13424
T8 sequence (Q13424 82-180, limits assumed, looked up): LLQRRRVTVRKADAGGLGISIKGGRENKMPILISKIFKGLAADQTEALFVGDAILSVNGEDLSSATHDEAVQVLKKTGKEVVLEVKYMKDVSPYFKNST

[16] = molecular target: GORASP2, Q9H8Y8
[17] = molecular target: T9, TX1BP3, O14907
T9 sequence (O14907 10-122, limits assumed, looked up): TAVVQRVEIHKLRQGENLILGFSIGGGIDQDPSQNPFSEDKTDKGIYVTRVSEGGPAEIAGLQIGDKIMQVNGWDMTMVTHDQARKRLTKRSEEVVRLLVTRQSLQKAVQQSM

[18] = molecular target: Inadl_5, Q8NI35
[19] = molecular target: Inadl_1, Q8NI35
[20] = molecular target: FRMPD4, Q14CM0
[21] = molecular target: GRID2IP_2, A4D2P6
[22] = molecular target: T10, ARHGEF11, O15085
T10 sequence (O15085 42-136, limits assumed, looked up): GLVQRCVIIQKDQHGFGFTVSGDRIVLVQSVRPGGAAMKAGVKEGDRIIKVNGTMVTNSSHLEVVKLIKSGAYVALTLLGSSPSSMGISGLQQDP

[23] = molecular target: T11, MPDZ_5, O75970
T11 sequence (O75970 695-796, limits assumed, looked up): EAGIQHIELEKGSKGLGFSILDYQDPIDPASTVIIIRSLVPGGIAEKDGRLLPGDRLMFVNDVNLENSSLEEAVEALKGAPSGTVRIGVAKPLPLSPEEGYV

[24] = molecular target: T12, PDZD2_2, O15018
T12 sequence (O15018 329-429, limits assumed, looked up): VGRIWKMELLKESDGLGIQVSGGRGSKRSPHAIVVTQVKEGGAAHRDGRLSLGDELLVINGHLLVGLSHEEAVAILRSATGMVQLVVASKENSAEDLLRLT

[25] = plain residues with an end cap or a label only (N-terminal biotin on a linker: ado-ado)
[26] = modified: phospho on T at position -2 from the C-terminal residue

Sequence of NHERF2_2, Q15599 (Q15599 142-238): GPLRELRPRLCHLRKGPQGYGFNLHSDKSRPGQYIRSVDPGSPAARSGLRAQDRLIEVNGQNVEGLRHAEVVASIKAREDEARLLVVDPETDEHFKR
Sequence of TJP1_2, Q07157 (Q07157 181-274): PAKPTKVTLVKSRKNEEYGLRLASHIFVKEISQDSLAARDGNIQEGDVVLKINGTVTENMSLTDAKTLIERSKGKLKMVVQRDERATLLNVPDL
Sequence of Inadl_1, Q8NI35 (Q8NI35 113-229): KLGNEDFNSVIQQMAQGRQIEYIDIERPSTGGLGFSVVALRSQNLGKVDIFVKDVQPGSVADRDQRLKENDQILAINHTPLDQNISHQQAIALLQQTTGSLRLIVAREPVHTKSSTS
Sequence of Inadl_3, Q8NI35 (Q8NI35 359-469): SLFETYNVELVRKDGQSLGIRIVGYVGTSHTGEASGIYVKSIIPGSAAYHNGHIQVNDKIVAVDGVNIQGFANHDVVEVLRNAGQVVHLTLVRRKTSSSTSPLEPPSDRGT
Sequence of FRMPD4, Q14CM0 (Q14CM0 67-160): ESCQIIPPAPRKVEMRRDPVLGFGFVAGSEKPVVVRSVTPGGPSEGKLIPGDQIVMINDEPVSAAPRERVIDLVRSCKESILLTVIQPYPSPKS
Sequence of FRMPD2_2, Q68DX3 (Q68DX3 944-1038): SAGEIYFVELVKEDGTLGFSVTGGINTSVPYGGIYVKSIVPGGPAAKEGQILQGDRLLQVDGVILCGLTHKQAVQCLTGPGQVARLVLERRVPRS
Sequence of GRID2IP_2, A4D2P6 (A4D2P6 272-370): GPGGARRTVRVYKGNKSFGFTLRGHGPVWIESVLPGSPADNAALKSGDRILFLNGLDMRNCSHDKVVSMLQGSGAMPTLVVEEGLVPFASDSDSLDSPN
Sequence of SCRIB_2, Q14160 (Q14160 857-960): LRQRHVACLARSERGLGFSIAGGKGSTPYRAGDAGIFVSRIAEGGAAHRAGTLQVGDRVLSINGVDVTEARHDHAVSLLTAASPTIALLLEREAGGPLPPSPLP
Sequence of Inadl_5, Q8NI35 (Q8NI35 673-780): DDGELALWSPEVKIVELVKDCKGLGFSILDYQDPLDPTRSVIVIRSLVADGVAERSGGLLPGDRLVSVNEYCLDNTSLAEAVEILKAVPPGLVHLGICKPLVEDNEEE
Sequence of LAP2, Q96RT1 (Q96RT1 other isoform, or with tags, fused parts or gaps): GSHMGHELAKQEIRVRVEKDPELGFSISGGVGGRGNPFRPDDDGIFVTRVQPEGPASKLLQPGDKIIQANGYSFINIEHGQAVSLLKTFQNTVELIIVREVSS

B1: SLCO1B1, Q9Y6L6 (peptide)
chain: SAGADSETHC
In the case of B1, the pKd [1, 25] is reported as “below the threshold”, the pKd [2, 25] is reported as “below the threshold” and the pKd [3, 25] is reported as “below the threshold”. The pKd [4, 25] was “below the threshold”, the pKd [5, 25] was “below the threshold” and the pKd [6, 25] was “below the threshold”. For the same binder, the pKd [7, 25] was 3.93, the pKd [8, 25] was “below the threshold” and the pKd [9, 25] was “below the threshold”. The pKd [10, 25] was “below the threshold”, the pKd [11, 25] was 3.72 and the pKd [12, 25] was “below the threshold”. For the same binder, the pKd [13, 25] was “below the threshold”, the pKd [14, 25] was “below the threshold” and the pKd [15, 25] was “below the threshold”. The pKd [16, 25] was “below the threshold”, the pKd [17, 25] was “below the threshold” and the pKd [18, 25] was “below the threshold”. The pKd [19, 25] was “below the threshold”, the pKd [20, 25] was “below the threshold” and the pKd [21, 25] was “below the threshold”. The pKd [22, 25] was “below the threshold”, the pKd [23, 25] was “below the threshold” and the pKd [24, 25] was 3.68.

B2: HPV33-E6_-2P, P06427 (peptide)
chain: SRSRRRETAL
For B2, the pKd [1, 26] was “below the threshold”, the pKd [2, 26] was “below the threshold” and the pKd [3, 26] was “below the threshold”. The pKd [4, 26] was “below the threshold”, the pKd [5, 26] was “below the threshold” and the pKd [6, 26] was “below the threshold”. The pKd [7, 26] was 4.08, the pKd [8, 26] was “below the threshold” and the pKd [9, 26] was “below the threshold”. The pKd [10, 26] was “below the threshold”, the pKd [11, 26] was “below the threshold” and the pKd [12, 26] was “below the threshold”. The pKd [13, 26] was “below the threshold”, the pKd [14, 26] was “below the threshold” and the pKd [15, 26] was “below the threshold”. For the same binder, the pKd [16, 26] was “below the threshold”, the pKd [17, 26] was “below the threshold” and the pKd [18, 26] was “below the threshold”. For the same binder, the pKd [19, 26] was “below the threshold”, the pKd [20, 26] was 3.73 and the pKd [21, 26] was “below the threshold”. The pKd [22, 26] was “below the threshold”, the pKd [23, 26] was “below the threshold” and the pKd [24, 26] was “below the threshold”.

B3: TNRC6B, Q9UPQ9 (peptide)
chain: DLLGGGSDSI
For B3, the pKd [1, 25] was “below the threshold”, the pKd [2, 25] was 3.62 and the pKd [3, 25] was “below the threshold”. For the same binder, the pKd [4, 25] was “below the threshold”, the pKd [5, 25] was “below the threshold” and the pKd [6, 25] was “below the threshold”. For the same binder, the pKd [7, 25] was 3.48, the pKd [8, 25] was “below the threshold” and the pKd [9, 25] was “below the threshold”. The pKd [10, 25] was “below the threshold”, the pKd [11, 25] was “below the threshold” and the pKd [12, 25] was “below the threshold”. The pKd [13, 25] was “below the threshold”, the pKd [14, 25] was “below the threshold” and the pKd [15, 25] was “below the threshold”. For the same binder, the pKd [16, 25] was “below the threshold”, the pKd [17, 25] was “below the threshold” and the pKd [18, 25] was “below the threshold”. The pKd [19, 25] was “below the threshold”, the pKd [20, 25] was 3.56 and the pKd [21, 25] was “below the threshold”. For the same binder, the pKd [22, 25] was 3.65, the pKd [23, 25] was “below the threshold” and the pKd [24, 25] was 3.68.
